B1: Bim_Her2 (Her2 DARPin tagged with N-terminal Bim peptide) (designed binder)
chain: MGSHHHHHHGSGSENLYFQGSTDEIWIAQELRRIGDEFNAYYASGSGDLGKKLLEAARAGQDDEVRILMANGADVNAKDEYGLTPLYLATAHGHLEIVEVLLKNGADVNAVDAIGFTPLHLAAFIGHLEIAEVLLKHGADVNAQDKFGKTAFDISIGNGNEDLAEILQKLN
notes: also called anti-Her2 DARPin with N-terminal fusion to Bim; Bim-DARPin
B2: Bim_EGFR (EGFR DARPin tagged with N-terminal Bim peptide) (designed binder)
chain: MGSHHHHHHGSGSENLYFQGSTDEIWIAQELRRIGDEFNAYYASGSGDLGKKLLEAARAGQDDEVRILMANGADVNADDTWGWTPLHLAAYQGHLEIVEVLLKNGADVNAYDYIGWTPLHLAADGHLEIVEVLLKNGADVNASDYIGDTPLHLAAHNGHLEIVEVLLKHGADVNAQDKFGKTAFDISIDNGNEDLAEILQKLN
notes: also called anti-EGFR DARPin with N-terminal fusion to Bim; Bim-DARPin

Columns and labels:
[1] = target: T1, Her2-eGFP (hsHER2_ecd_tm-eGFP) (human (printed as hs)); assay: flow cytometry on mixed K562 cells expressing Her2-eGFP, EGFR-iRFP, both or neither; DARPin pre-complexed with Bcl2-AF594, 3-fold dilutions from 300 nM to 0.4 nM
T1 construct: Her2 ectodomain and transmembrane region fused to eGFP, expressed on K562 cells by lentiviral transduction; also called K562/Her2
Method: (§1) FIG. 21. DARPin binder affinity measured by flow cytometry. Anti-Her2 or anti-EGFR DARPins with N-terminal fusions to Bim were pre-complexed with Bcl2-AF594 and serially diluted 3-fold from 300 nM down to 0.4 nM. This dilution series was used to label a mixed population of K562 cells expressing Her2-eGFP, EGFR-iRFP, both, or neither for one hour at room temperature in a 50 μl incubation volume. The cells were then washed in PBS supplemented with 0.1% bovine serum albumin and analyzed on an LSRII flow cytometer.

[2] = target: T2, EGFR-iRFP (hsEGFR_ecd_tm-iRFP) (human (printed as hs)); assay: as above
T2 construct: EGFR ectodomain and transmembrane region fused to iRFP, expressed on K562 cells by lentiviral transduction; also called K562/EGFR
T2 sequence (chain, as listed by the source limits assumed): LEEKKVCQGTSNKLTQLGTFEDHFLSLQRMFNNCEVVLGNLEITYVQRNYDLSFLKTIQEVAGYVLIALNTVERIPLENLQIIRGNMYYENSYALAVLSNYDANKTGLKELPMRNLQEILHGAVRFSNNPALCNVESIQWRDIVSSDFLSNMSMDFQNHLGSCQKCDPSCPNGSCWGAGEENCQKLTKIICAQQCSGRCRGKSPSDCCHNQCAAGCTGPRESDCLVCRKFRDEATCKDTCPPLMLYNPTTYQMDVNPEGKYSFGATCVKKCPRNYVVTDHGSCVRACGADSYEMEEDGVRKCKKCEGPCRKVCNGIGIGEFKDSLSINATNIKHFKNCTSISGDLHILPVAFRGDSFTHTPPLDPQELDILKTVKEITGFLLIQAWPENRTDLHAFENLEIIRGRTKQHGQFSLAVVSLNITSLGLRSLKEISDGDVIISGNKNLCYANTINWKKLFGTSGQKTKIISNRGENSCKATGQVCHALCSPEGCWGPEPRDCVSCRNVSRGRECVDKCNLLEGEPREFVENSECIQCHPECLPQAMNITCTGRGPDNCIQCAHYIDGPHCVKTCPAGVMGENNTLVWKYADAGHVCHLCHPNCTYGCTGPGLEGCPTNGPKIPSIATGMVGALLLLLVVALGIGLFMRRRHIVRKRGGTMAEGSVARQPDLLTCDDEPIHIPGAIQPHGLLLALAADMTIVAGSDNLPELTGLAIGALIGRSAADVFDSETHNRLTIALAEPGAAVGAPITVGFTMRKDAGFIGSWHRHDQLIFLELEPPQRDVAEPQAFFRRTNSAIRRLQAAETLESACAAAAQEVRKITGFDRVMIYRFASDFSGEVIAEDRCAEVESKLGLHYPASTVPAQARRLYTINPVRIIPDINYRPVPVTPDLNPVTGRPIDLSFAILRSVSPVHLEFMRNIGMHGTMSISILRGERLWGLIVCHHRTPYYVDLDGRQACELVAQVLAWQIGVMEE
Method: as §1

Binder | Kd [1] [µM] | Kd [2] [µM]
B1 | ~0.01 | 
B2 |  | ~0.01
